Source: article PMC3521592 (Biochemistry, 2012)
Where two headings read alike, the source gives them in different places.

T1: untagged HPV16-E7_(1–98) (human papillomavirus 16 (HPV16)), P03129
T1 chain: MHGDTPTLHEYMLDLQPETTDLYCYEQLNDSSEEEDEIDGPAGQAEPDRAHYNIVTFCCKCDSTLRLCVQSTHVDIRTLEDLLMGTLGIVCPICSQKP

B1: untagged HPV16-E7_(1–98) (natural protein)
chain: T1 chain
B2: untagged Ad5-E1A_(1–77) (domain or fragment)
chain: MRHIICHGGVITEEMAASLLDQLIEEVLADNLPPPSHFEPPTLHELYDLDVTAPEDPNEEAVSQIFPDSVMLAVQEG
B3: untagged HPV16-E7_(1–51) (domain or fragment)
chain: MHGDTPTLHEYMLDLQPETTDLYCYEQLNDSSEEEDEIDGPAGQAEPDRAH
B4: GST-HPV16-E7_(1–46) (domain or fragment)
chain: MHGDTPTLHEYMLDLQPETTDLYCYEQLNDSSEEEDEIDGPAGQAE
B5: 6xHis-Ad5-E1A_(1–138) (domain or fragment)
chain: MRHIICHGGVITEEMAASLLDQLIEEVLADNLPPPSHFEPPTLHELYDLDVTAPEDPNEEAVSQIFPDSVMLAVQEGIDLLTFPPAPGSPEPPHLSRQPEQPEQRALGPVSMPNLVPEVIDLTCHEAGFPPSDDEDEE
B6: 6xHis-Ad5-E1A_(1–189) (domain or fragment)
chain: MRHIICHGGVITEEMAASLLDQLIEEVLADNLPPPSHFEPPTLHELYDLDVTAPEDPNEEAVSQIFPDSVMLAVQEGIDLLTFPPAPGSPEPPHLSRQPEQPEQRALGPVSMPNLVPEVIDLTCHEAGFPPSDDEDEEGEEFVLDYVEHPGHGCRSCHYHRRNTGDPDIMCSLCYMRTCGMFVYSPVSE

How the values were obtained:
[1] = target: T2, p300CH1, CH1 domain of human p300 (residues 323–424), untagged (human, UniProt Q09472 323-424); assay: AUC
T2 sequence (Q09472 323-424): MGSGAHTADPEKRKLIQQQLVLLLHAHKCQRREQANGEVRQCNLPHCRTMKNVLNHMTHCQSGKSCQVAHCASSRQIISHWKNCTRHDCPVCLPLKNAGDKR

[2] = target: T1, untagged HPV16-E7_(1–98) (human …); assay: AUC; conditions: remark: other sources report otherwise
[3] = target: T2, p300CH1, CH1 domain of human p300 …; assay: AUC; remark: listed apart in the source
[4] = target: T2, p300CH1, CH1 domain of human p300 …; assay: pull-down

Binder | stoichiometry N [1] | stoichiometry N [3] | further results
B1 | 1 |  | stoichiometry N [2]: 2
B2 |  | 1 | 
B3 | 1 |  | 
B4 |  |  | binding result [4]: binds
B5 |  | 1 | 
B6 |  | 1 | 
